We go through one substance from US20190233542A1.

The target in experiment [1] is human PCSK9 (Proprotein Convertase Subtilisin/Kexin type 9) (human) (UniProt Q8NBP7). Kind of experiment: cell-based or functional assay.
Experiment [2] has the same target. Nature of the experiment: binding ELISA on human PCSK9. In general terms: An ELISA detects its analyte on a solid surface through an enzyme-linked reagent.
Experiment [3] addresses human PCSK9-mFc-biotin (human) (UniProt Q8NBP7). Kind of experiment: competitive ELISA, blocking of PCSK9 binding to LDL-R.

In experiment [1], Repatha (antibody) gave an IC50, LDL-uptake assay in HepG2 of 77.6 nM. In addition, in experiment [2], the EC50 (as a rule, the concentration at which the effect is half-maximal) was found to be 0.044 nM. Further, in experiment [3], the IC50 (as a rule, the concentration at which inhibition is half-maximal) worked out at 2.21 nM.
